Results from paper PMC4383067 (Acta Neuropathologica Communications, 2015).

How the values were obtained:
[1] = target: Amyloid fibrils of human PrP Δ100-120 (human, UniProt P04156 23-231, ∆100-120); assay: static light scattering kinetics; settings: both partners purified
[2] = target: Amyloid fibrils of human PrP Δ23-99 (human, UniProt P04156 100-231); assay: static light scattering kinetics; settings: both partners purified

B1: Full-length human acetylcholinesterase (dimeric, recombinant) (enzyme)
chain: EGREDAELLVTVRGGRLRGIRLKTPGGPVSAFLGIPFAEPPMGPRRFLPPEPKQPWSGVVDATTFQSVCYQYVDTLYPGFEGTEMWNPNRELSEDCLYLNVWTPYPRPTSPTPVLVWIYGGGFYSGASSLDVYDGRFLVQAERTVLVSMNYRVGAFGFLALPGSREAPGNVGLLDQRLALQWVQENVAAFGGDPTSVTLFGESAGAASVGMHLLSPPSRGLFHRAVLQSGAPNGPWATVGMGEARRRATQLAHLVGCPPGGTGGNDTELVACLRTRPAQVLVNHEWHVLPQESVFRFSFVPVVDGDFLSDTPEALINAGDFHGLQVLVGVVKDEGSYFLVYGAPGFSKDNESLISRAEFLAGVRVGVPQVSDLAAEAVVLHYTDWLHPEDPARLREALSDVVGDHNVVCPVAQLAGRLAAQGARVYAYVFEHRASTLSWPLWMGVPHGYEIEFIFGIPLDPSRNYTAEEKIFAQRLMRYWANFARTGDPNEPRDPKAPQWPPYTAGAQQYVSLDLRPLEVRRGLRAQACAFWNRFLPKLLSATDTLDEAERQWKAEFHRWSSYMVHWKNQFDHYSKQDRCSDL
notes: also called AChE; dimeric AChE
- stoichiometry N [1]: 0.5
- stoichiometry N [2]: 0.5
